Legend:
[1] = target: HVEM(200t), soluble herpesvirus entry mediator (UniProt Q92956); assay: SPR
[2] = target: T1, nectin-1(346t), soluble nectin-1 (UniProt Q15223 31-346); assay: SPR
T1 sequence (looked up): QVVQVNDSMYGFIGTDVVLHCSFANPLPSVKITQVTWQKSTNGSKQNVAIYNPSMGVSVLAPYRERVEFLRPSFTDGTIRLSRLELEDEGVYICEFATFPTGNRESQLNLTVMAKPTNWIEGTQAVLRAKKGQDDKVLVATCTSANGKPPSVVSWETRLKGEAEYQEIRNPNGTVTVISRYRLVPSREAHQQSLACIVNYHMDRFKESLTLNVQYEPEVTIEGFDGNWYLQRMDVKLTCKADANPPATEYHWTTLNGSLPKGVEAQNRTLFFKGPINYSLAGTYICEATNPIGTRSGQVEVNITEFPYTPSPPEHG

gD(3C-38C)306t (from UniProt Q69091 26-331) (domain or fragment)
Kd [1]: 2390 nM

B1: gD(306t), soluble ectodomain of HSV-1 glycoprotein D (domain or fragment)
chain: KYALADASLKMADPNRFRGKDLPVLDQLTDPPGVRRVYHIQAGLPDPFQPPSLPITVYYAVLERACRSVLLNAPSEAPQIVRGASEDVRKQPYNLTIAWFRMGGNCAIPITVMEYTECSYNKSLGACPIRTQPRWNYYDSFSAVSEDNLGFLMHAPAFETAGTYLRLVKINDWTEITQFILEHRAKGSCKYALPLRIPPSACLSPQAYQQGVTVDSIGMLPRFIPENQRTVAVYSLKIAGWHGPKAPYTSTLLPPELSETPNATQPELAPEDPEDSALLEDPVGTVAPQIPPNWHIPSIQDAATPY
Kd [2]: 1740 nM

B2: gD(285t) (domain or fragment)
chain: KYALADASLKMADPNRFRGKDLPVLDQLTDPPGVRRVYHIQAGLPDPFQPPSLPITVYYAVLERACRSVLLNAPSEAPQIVRGASEDVRKQPYNLTIAWFRMGGNCAIPITVMEYTECSYNKSLGACPIRTQPRWNYYDSFSAVSEDNLGFLMHAPAFETAGTYLRLVKINDWTEITQFILEHRAKGSCKYALPLRIPPSACLSPQAYQQGVTVDSIGMLPRFIPENQRTVAVYSLKIAGWHGPKAPYTSTLLPPELSETPNATQPELAPEDPEDSALLEDPVGT
Kd [2]: 71.3 nM

B3: gD(23-285t) (domain or fragment)
chain: PVLDQLTDPPGVRRVYHIQAGLPDPFQPPSLPITVYYAVLERACRSVLLNAPSEAPQIVRGASEDVRKQPYNLTIAWFRMGGNCAIPITVMEYTECSYNKSLGACPIRTQPRWNYYDSFSAVSEDNLGFLMHAPAFETAGTYLRLVKINDWTEITQFILEHRAKGSCKYALPLRIPPSACLSPQAYQQGVTVDSIGMLPRFIPENQRTVAVYSLKIAGWHGPKAPYTSTLLPPELSETPNATQPELAPEDPEDSALLEDPVGT
Kd [2]: 65.7 nM

From publication PMC3979344 (Virology, 2013)
